For three molecules, combined titer of 7 and 8 in E. coli (maximum amount of product), combined titer of 7 and 8 in E. coli, against unmodified JamC/LipPKS1* and in vitro product formation assay: formation of 7 against wild-type JamC results are on record in PMC9829517.

Experiment [1] addresses Ndd^JamL-LipPKS1* (Moorea producens | not stated).

Where a chain is given by its changes, count along the chain named. Names and notes keep the numbering of the source.

Turning to JamC(E32T)-Cdd^JamK, in experiment [1], the combined titer of 7 and 8 in E. coli (maximum amount of product) was found to be 16 mg/L; the combined titer of 7 and 8 in E. coli, against unmodified JamC/LipPKS1* is 39 fold.

B1: JamC (E32T) (natural protein)
chain: MENLTVETQNLTSLDNGSIEEKNGPTVDEVQTWLISYLSQLLDLEIEEISTSTSFNRYGLDSSASISLTSDFGDWISKEIDPTILYSYPTIEAMAEHFGA
modifications: holo-ACP, acyl chain loaded by JamA; residue not stated
Regarding B1, the in vitro product formation assay: formation of 7 against wild-type JamC with LipPKS1* was found to be 7 fold.

B2: JamC (E32H) (natural protein)
chain: B1 chain with T32H
modifications: holo-ACP, acyl chain loaded by JamA; residue not stated
On to B2, for which the in vitro product formation assay: formation of 7 against wild-type JamC with DEBSM6* worked out at 2 fold.
